Experiment: yeast display, Sf9 membrane polyspecificity reagent, FACS + sequencing; frameworks hold sequencing errors
Method in brief: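 Sorting gates, low and high (top ~1%), were placed on anti-HA fluorescence to track expression and on streptavidin fluorescence to track reagent binding. A clone's polyreactivity label is taken from the gate it came out of. The reagent was 10% biotinylated, detergent-solubilized Sf9 membrane, applied for 1 hour at 4 °C to galactose-induced yeast display cells.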

Row | Sequence | polyreactivity (PSR sort gate)
1 | QVQLVESGGGLVQAGGSLRLSCAASGRIFVKYAMGWYRQATGKERELVAAISKSGGSTYYADSVKGRFTISRDNAKNTVYLQMNSLKPEDTAVYYCATRSRDQYSVSYRLDYWGQGTQVTVSW | low polyreactivity
2 | QVQLVESGGGLVQAGGSLRLSSAASGFTFVINDMGWYRPAPGKERELVADITSGGDTYYADSVKGRFTISRDNAKNTVYLQMNSLKPEDTAVYYCAADIYPDWIYLLYGYWGQGTQVTVSS | low polyreactivity
3 | QVQLVESGGGLVQAGGSLRLSCAATGRTIHGYAMGWYRQAPGKERELVAAITGTGGRTYYADSVKGRFTISRDNAKNTVYLQMNSLKPEDTAVYYCAARPWIKSGYWGQGTQVTVSS | high polyreactivity
4 | QVLLVESGGGLVQAGGSLRLTCTPYGSIFGYYVMGRYRQPPGKEREFVAAISYGGGSTYYADSVKGRFTISRDNAKNTVYLQMNSLKPEETAVYYCNTDIYSDYVGEEYEYWGQGSQVTVSS | high polyreactivity
5 | QVQLVESGGGLVQAGGSLRLSCAASGRIFKYNAMGWYRQAPGKERELVAAISGRGVSTYYADSVKGRFTISRDNAKNTVYLQMNSLKPEDTAVYYCAAETVHGSADFDYWGQGTKVTVSS | low polyreactivity
6 | QVQLVESGGGLVQAGGSLRLSCAASGRIFRRYAMGWYRQAPGKERELVAAITSGSSTNYADSVKGRFTISRDNAKNTVYLQMNSLKPEDTAVYYCNAKLRGYYYSRYNYWGQGTQVTVSS | high polyreactivity
7 | QVQLVESGGGLVQAGGSLRLSCAASGGTFESYTMGWYRQAPGKERELVATISTSGGRTYYADSVKGRFTISRDNAKNTVYLQMHSLKPEDTAVYYCNKVSDAYGEYVTLHLDYWGQGTLVTVSS | low polyreactivity
8 | QVQLVESGVGLVQAGGSLRLSCAASGNIFWWNAMGWYRQAPGKERELVAAITSDSTTYYADSVKGRFTISRDNAKKTVYFQMNSLKPEDTAVYYCAAYSYGGQGVDYGYWGQGTQVNVSS | low polyreactivity
9 | QVQLVESGGGLVQAGGSLRLSCAASGFIFDAYAMGWYRQAPGKERELVAAIDSGGSTDYADSVKGRFTISRDNAKNTVYLQMNSLKPEDTAVYYCNAERAYLWWYNFDYWGQGTQVTVSS | low polyreactivity
10 | QVQLVESGGGLVQAGGSLRLICAASGFTFSWYVMGWYRQAPGKERELVATITNRGGSTYYADSVKGRFTISRDTAKNTVYLQMNSLKPEDTAVYYCAARKKGSRVGYDYCGQGTQVTVSS | high polyreactivity
11 | QVQLEESGGGLVQAGGSLRLSCAASGRTYRYAMGWYRQSPGKERELVAAIRWSGGSTYYADSVKGRFTISRDNAKNTVYLQMNSLKPEDTAVYYCAADSYATRYYYWGQGTQVTVSS | high polyreactivity
12 | QVQLVESGGGLVQAGGSLRLSCAASGRILGNNVMGWYRQAPGKERELVDAITSSGGRTYYADSVKGRFTISRDNAKNTVYLQMNSLKPEDTAVYYCAAERRYYGKFNYWGQGTQVTVSS | high polyreactivity
13 | QVQLVESGGGLVQAGGSLRLSCAACGSIFPAYAMGWYRQAPGKERELVASITGSGGSTYYADSVKGRFTISRDNAKNTVYLQMNSLKPEDTAVYYCNARYYVYSATVDRYYHFYYWGQGTQVTVSS | high polyreactivity
14 | QVQLVESGGGLVQAGGSLRLSCAASVSTLRYYAMGWYRQAPGKERELVAAISYSGGSTYYADSVKGRFTISRDNAKNTVYLQMNRLKPEDTAVYYCNAEWGWRRYGSSYVYWGQGTQVTVSS | high polyreactivity
15 | QVQRVESGGGLVQAGGSLRLSCAASGFIFKDNAMGWYRQARGKERELVAVISGTGGRTNSADSVKGRFTISRDNAKNTVYLQMNSLKPEDTAVYYCAAEGYYTSTYDLYDYYYWGQGTQVTVSS | low polyreactivity
16 | QVQLVESGGGLVQAGGSLRLSCAASGGTLGLNAMGWYRQAPGKEREFVAAINRSGGSTRYADSVKGRFTISRDNAKNTVYLQMNSLKPEDTAVYSCAAVGYWGPSGRHKSSKYEYWGQGTQVTVSS | high polyreactivity

Row | Sequence | polyreactivity (PSR sort gate)
17 | QVQLVESGGGLVQAGGSLRLSCAASGRIFYSYAMGCSRQAPGKERELVAAITRGGRTKYADSVKGRFTISRDNEKNTVYLQMNSLKPEDTAVYYCAAVKFYTEYNQYDYWGQGTQVTVSS | high polyreactivity
18 | QVQLVESGGGLVQAGGSLRLSCAASGSNSRVNAMGWYRQATWKERELVASITKSTGSTYYADSVKGRFTISRDNAKNTVYLQMNSLKPEDTAVYYCAKAASYPVRAFYYWGLGTQVTVSS | high polyreactivity
19 | QVQIVESGGGLVQAGGSLRLSCAASGGILYYYVMGWYRQAPGKERELVADISRGGSTNYADSVKGRFTISRDNAKNTVYFQMNSLKPEDTAVYYCADQDGLKQYTFDYWGQGTQVSVSS | low polyreactivity
20 | QVQLVESGGGLVQAGGSLRLSCAASGRIFTTNAMGWYRQAPGKERELVAAITYSGGTTYYADSVKGRFTISRDNAKNTVYLQLNSLNPEDTAVYYCAADVKFSTPYDYWGQGSQVTVSS | low polyreactivity
21 | QVQLVESGGGLVQAGGSLRLSFAASGSNFYIYAMGWYRQAPGKERELVAAITSGGNTYYVDSVKGRFTISRDNAKNTVYFQMNSLKPEDTAVYYCAAELYDRWSRMDYWGQGTQVTVSS | low polyreactivity
22 | QVQHVESGGGLVQAGGSLRLSCAASGLTFRVYAMGWYRQEPGKERELVAAITGGGGSTYADSVKGRFTISRENAKNTVYLQMNSLNPDDTAVYYCNIKGYYYKFDYWGQGTQVTVSS | low polyreactivity
23 | QVQLVESGGALVQAGGSLRLSCAASGSTFFINAMGWYRQAPGKERELVAAITSTDSTTYADSVKGRFTISRDNAKNTVYLQMNSLKPEDTAVYYCAKESIGQDPVSGAWARHEYDYWGQGTQVTVSS | low polyreactivity
24 | QVQLVESGGGLVQAGGSLRLSCAAYGSIFWYYAMGWYRQAHGKERELVAAISASGSSTYYADSVKGRLTISRDNAKNPVYLQMNSLNPEDTAVYYCAGTYILYNDWLYHYFPEEYDSWGQGTQVTVSS | low polyreactivity
25 | QVQLVESGGGLVQAGGSLRLSCAASGSTFTSNVMGWYRQAPGKERELVAAISQSGGRTYYADSVKGRFTISRDNAKNTVYLQMNSLKPEDTAVYYCAASYVHYHMDYWGQGTQVTVSS | high polyreactivity
26 | QVQLVESGGGLVQAGGSLRLSCAASGSTFWHNAMGWYRTAHGKERELVAGISSIGGRTYYADSVKGRFTISRDNAKNTVYLQMNSLKQEDTAVYYCAARYRRTIPWFAPGTDHNYWGQGTQVTVSS | high polyreactivity
27 | QVQLVDSGGGLVQSGGSLSLSCAASGFNFWPYAMGWYREAPGKEREFVAAITRTGGSTSYADSVKGRFTISRDNAKNTVYLQINSLKPEDTAVYYCAATSYYRTNYGLVFQYRRNYGGQGTQVTVSS | high polyreactivity
28 | QVQLVESGGGLVQAGGSLRLSCAASGRIFRYYTMGWYTPAPGNERELVAAISSSGGRTYYADSVKGRFTISRDNAKNTVYLQMNSLKPEDTAVYYCNAYRRFSAFDYWGQGTQVTVTS | high polyreactivity
29 | QVQLVESGGGLVQAGGSLRLTCAASGSTFVRYAMGWSRQAPGKERELVAAISRGGRTNYADSVKGRFTISRDNAKNTVYLQMNSLKPEDTAVYDCAKDRNIYYTYDYWGQGTQVTVSS | low polyreactivity
30 | QVHLVESGGGLVQAGGSLRLSCAASGRIFAKNAMGWYRQAPGKERELVAAINHSGGSTYYADSVKGRFTISRDYAKNTVYLQMNSLNPEDTAVYYCDARGLTTRSPFYYWGQGTQVTVSS | high polyreactivity
31 | QVQLVESGGGLVQAGGSLRLSCAASGRTLWYYTMGWYRQAPGKERELVADITRGTSTNYADSVKGRFTISRDNAKNTVYLQMNSLKPEDTAVYSCNRAHGRSRYSRDYDSWGQGTQVTVSS | low polyreactivity

— the nanobody polyreactivity screen of Harvey et al. (2022)
